In publication PMC6356446:

Molecular target: c-Met (human (endogenous in HCC413)), P08581
Assay: flow cytometry on cells; HCC413 cells treated with EGF-FITC or HGF-FITC alone or with unlabeled LZ-8 for 15 min; fixed; relative mean fluorescence intensity
Conditions: remark: other sources report otherwise

c-Met (human (endogenous in HCC413)), P08581, sequence (P08581 25-1390): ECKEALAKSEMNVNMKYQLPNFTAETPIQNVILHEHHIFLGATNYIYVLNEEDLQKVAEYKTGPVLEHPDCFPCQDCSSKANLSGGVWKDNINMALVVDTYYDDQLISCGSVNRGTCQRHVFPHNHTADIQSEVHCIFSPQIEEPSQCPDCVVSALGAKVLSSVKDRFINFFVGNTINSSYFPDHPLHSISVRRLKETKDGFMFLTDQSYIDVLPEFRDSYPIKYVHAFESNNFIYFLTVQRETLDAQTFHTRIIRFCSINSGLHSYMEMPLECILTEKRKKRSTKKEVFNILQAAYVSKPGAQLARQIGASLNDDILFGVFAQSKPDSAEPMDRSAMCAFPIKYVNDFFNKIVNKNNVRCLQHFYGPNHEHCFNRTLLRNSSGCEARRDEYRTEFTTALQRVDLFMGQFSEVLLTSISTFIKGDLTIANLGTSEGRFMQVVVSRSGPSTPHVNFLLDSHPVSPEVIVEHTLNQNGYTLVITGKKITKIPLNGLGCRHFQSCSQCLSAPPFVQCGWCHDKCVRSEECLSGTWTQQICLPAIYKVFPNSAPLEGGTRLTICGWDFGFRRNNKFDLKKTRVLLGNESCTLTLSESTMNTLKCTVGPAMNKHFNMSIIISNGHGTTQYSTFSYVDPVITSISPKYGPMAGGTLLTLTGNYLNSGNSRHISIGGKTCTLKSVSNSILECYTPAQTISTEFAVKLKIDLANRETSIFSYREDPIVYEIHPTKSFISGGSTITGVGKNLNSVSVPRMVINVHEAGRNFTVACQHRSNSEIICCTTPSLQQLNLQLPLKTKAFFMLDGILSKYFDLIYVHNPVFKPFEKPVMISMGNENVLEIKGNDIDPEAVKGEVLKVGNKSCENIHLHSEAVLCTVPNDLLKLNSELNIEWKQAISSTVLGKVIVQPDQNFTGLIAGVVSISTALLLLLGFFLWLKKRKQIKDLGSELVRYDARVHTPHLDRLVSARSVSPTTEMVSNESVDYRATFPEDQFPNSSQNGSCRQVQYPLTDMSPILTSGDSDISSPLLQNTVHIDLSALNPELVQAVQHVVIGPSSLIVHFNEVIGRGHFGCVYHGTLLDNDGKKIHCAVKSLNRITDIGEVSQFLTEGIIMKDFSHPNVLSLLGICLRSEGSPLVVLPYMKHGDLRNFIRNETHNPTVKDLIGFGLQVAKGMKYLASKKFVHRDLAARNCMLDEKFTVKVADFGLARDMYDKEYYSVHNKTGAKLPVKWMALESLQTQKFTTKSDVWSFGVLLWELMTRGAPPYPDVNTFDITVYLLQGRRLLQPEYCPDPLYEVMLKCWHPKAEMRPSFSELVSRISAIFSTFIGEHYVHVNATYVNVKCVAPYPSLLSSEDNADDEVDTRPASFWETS

B1: Ling-Zhi-8, P14945 1-111 (natural protein)
chain: MSDTALIFRLAWDVKKLSFDYTPNWGRGNPNNFIDTVTFPKVLTDKAYTYRVAVSGRNLGVKPSYAVESDGSQKVNFLEYNSGYGIADTNTIQVFVVDPDTNNDFIIAQWN
modifications: here or on the partner: N-glycans (sites not given)
percent suppression of HGF-FITC binding on the cell surface: 30%
